Publication PMC8847575, “HSL1 and BAM1/2 impact epidermal cell development by sensing distinct signaling peptides” (Nature Communications, 2022)
Square brackets hold non-standard residues; d marks the D form. Peptide text beside a SMILES is read from it. Hyp = O=C(O)[C@@H]1C[C@@H](O)CN1

Experiments:
HSL1 ectodomain = biological target: T1, HSL1 ectodomain (Arabidopsis thaliana, UniProt Q9SGP2); experiment: GCI binding kinetics, peptide vs immobilised HSL1; settings: HSL1 on surface, peptide as analyte, 25 °C, pH 5, one-to-one binding model, read-out: ka association rate constant, peptide vs HSL1 (GCI)
T1 construct: HSL1 (residues 17-618, AT1G28440); azurocidin or Drosophila BIP signal peptide (secretion signal) (N); made in house; host or cells: Trichoplusia ni Tnao38 insect cells (baculovirus)
T1 sequence (Q9SGP2 17-618): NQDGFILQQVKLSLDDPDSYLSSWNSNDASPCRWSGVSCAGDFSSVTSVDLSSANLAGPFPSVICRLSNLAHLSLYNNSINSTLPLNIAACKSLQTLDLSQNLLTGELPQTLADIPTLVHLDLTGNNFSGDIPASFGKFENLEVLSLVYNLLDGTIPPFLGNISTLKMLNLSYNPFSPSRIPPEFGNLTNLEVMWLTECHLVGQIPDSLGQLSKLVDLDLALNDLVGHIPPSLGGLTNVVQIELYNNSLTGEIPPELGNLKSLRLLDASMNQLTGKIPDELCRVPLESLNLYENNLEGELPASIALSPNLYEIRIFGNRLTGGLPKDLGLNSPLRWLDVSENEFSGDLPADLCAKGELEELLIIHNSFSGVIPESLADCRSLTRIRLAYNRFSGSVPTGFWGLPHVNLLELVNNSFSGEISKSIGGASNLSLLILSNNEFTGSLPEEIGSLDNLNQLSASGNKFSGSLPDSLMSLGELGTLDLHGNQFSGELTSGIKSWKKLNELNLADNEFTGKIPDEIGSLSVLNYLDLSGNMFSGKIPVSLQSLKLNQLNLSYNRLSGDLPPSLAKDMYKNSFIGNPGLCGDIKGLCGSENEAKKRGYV
Method: 25 μM of HSL1 were biotinylated with the biotin ligase BirA[60] (2 μM) for 1 h at 30 °C, in a volume of 200 μl. The buffer used in the reaction was: 25 mM Tris pH 8, 150 mM NaCl, 5 mM MgCl2, 2 mM 2-Mercaptoethanol, 0.15 mM Biotin, 2 mM ATP. Biotinylated proteins were purified by size-exclusion chromatography in 20 mM citric acid pH5, 150 mM NaCl and subsequently used in GCI experiments.
GCI experiments were performed with the Creoptix WAVE system (Creoptix AG, Switzerland) using 4PCP WAVE chips (thin quasiplanar polycarboxylate surface; Creoptix, Switzerland). Chips were first conditioned with borate buffer (100 mM sodium borate pH 9.0, 1 M NaCl; Xantec, Germany). Chips were activated with 1:1 mix of 400 mM N-(3-dimethylaminopropyl)-N′-ethylcarbodiimide hydrochloride and 100 mM N-hydroxysuccinimide (Xantec, Germany). Streptavidin (50 µg/ml; Sigma, Germany) in 10 mM sodium acetate pH 5.0 (Sigma, Germany) was immobilized on the chip surface until saturation was reached, followed by passivation of the surface with BSA (50 µg/ml; Sigma, Germany) in 10 mM sodium acetate pH5.0, and a final quenching step with 1 M ethanolamine pH 8.0 (Xantec, Germany). Then, biotinylated HSL1 (ligand) (80–100 μg/ml) was captured on the streptavidin surface until the desired density was reached. Normal kinetic analysis were performed to measure the binding of IDL peptides (analyte) to HSL1. Experiments were performed at 25 °C with a 1:2 dilution series from a maximum concentration of 5–50 μM peptide, in 20 mM citrate pH 5, 250 mM NaCl, 0.005% Tween-20 v/v. To analyze the interaction kinetics of the co-receptor SERK1, 2 µM of the protein was used as a higher dilution with running buffer containing 5 µM of the IDL peptides being tested. Blank injections were used for double referencing and a dimethylsulfoxide (DMSO) calibration curve for bulk correction. Analysis and correction of the obtained data were performed using the Creoptix WAVE control software (correction applied: X and Y offset; DMSO calibration; double referencing). One-to-one binding model was used for both experiments.

[1] = biological target: T2, BAM1 (BARELY ANY MERISTEM 1) ectodomain (Arabidopsis, UniProt O49545 20-637); experiment: ITC
T2 chain: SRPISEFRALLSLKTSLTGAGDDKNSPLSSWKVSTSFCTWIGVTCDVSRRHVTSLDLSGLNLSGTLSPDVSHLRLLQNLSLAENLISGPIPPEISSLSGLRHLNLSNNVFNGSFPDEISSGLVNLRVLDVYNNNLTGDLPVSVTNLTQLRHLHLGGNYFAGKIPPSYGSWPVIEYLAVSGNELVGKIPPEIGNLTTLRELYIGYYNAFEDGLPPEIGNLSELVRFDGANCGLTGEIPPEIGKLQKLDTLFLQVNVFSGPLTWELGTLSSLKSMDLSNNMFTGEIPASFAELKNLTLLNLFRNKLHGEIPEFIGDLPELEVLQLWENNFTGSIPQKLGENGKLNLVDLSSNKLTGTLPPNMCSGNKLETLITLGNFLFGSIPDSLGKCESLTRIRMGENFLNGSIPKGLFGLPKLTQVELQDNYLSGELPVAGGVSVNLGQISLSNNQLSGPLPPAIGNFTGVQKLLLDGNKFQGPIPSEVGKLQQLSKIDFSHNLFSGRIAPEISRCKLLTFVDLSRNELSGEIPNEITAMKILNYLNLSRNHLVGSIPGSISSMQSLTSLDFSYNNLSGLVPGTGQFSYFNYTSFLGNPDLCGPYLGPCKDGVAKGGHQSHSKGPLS

[2] = biological target: T3, BAM1 (BARELY ANY MERISTEM 1) ectodomain (Arabidopsis, UniProt O49545 20-637); experiment: ITC; peptide (75 to 600 µM) injected into 10 to 30 µM HSL1 or BAM1 ectodomain in the cell; 25 °C; 20 mM sodium citrate pH 5.0, 150 mM NaCl; N fitted to 1; settings: both partners purified
T3 construct: BAM1 LRR receptor kinase ectodomain, Arabidopsis, residues 20-637, AT5G65700; codon optimised; secreted with an azurocidin or Drosophila BiP signal peptide; also called BAM1 extracellular domain; BAM1 LRR ectodomain; source: Trichoplusia ni Tnao38 cells (baculovirus), secreted, purified (Ni2+, Strep-Tactin, TEV cleavage, second Ni2+, SEC)
T3 sequence (looked up): T2 chain

[3] = biological target: T2, BAM1 (BARELY ANY MERISTEM 1) ectodomain; experiment: ITC; R109P L110I

CC(C)[C@H](NC(=O)[C@@H]1CCCN1)C(=O)N1CCC[C@H]1C(=O)N[C@@H](C)C(=O)N[C@@H](CO)C(=O)N[C@@H](C)C(=O)N1C[C@H](O)C[C@H]1C(=O)N[C@@H](CO)C(=O)N[C@@H](CCCNC(=N)N)C(=O)N[C@@H](CCCCN)C(=O)N[C@@H](Cc1c[nH]cn1)C(=O)N[C@@H](CC(N)=O)C(=O)O [IDL4, IDA-LIKE] (H-PVPASA[Hyp]SRKHN-OH)
kon (HSL1 ectodomain): 460000 M⁻¹ s⁻¹

B1: CLE9^Hyp112PHyp115P peptide (peptide, UniProt Q9FZE4 109-120, looked up)
peptide: RLVPSGPNPLHN
modifications: Pro112 and Pro115 not hydroxylated
notes: CLE9 mature dodecapeptide with plain proline at 112 and 115 in place of hydroxyproline; also called CLE9 with Hyp in positions 4 and 7 replaced by Pro
Kd [1]: 3 nM
Kd [2]: ~5 nM

RIVPSGPNPLHN [CLE9 variant with the second residue substituted by the corresponding one of IDA]
Kd [3]: 129 nM

B2: CLE9^V111P peptide (peptide, UniProt Q9FZE4 109-120, looked up)
peptide: RLPPSGPNPLHN
notes: CLE9 mature dodecapeptide with Val111 changed to Pro; also called replacement of the third Val by a Pro
Kd [2]: 3000 nM
